What all share (test): EMSA
What all share (details): EMSA: 1 nM 6-FAM DNA, 0-1.28 uM protein, 1 h at 37 C, binding buffer not stated; 6% PAGE in 40 mM Tris pH 7.6, 20 mM acetic acid, 1 mM EDTA at 4 C (effectors …)
(Mobility shift assays separate free from complexed probe on a gel.)

Data set [1] deals with CatM-His (Acinetobacter baylyi ADP1).
Data set [2] concerns CatM(I18F,K38N)-His (Acinetobacter baylyi ADP1).
Data set [3] deals with BenM-DBDCatM(F293Y,H160R)-His (Acinetobacter baylyi ADP1).
In data set [4] the test system is BenM-DBDCatM-His (Acinetobacter baylyi ADP1).

Values joined by “and” are separate entries in the source; they are usually repeats but may differ in a detail not shown here. Equal values may be shown once.

By Kd is commonly meant the free concentration of one partner at which half of the binding sites on the other are occupied at equilibrium, for simple one-to-one binding. For PbenA operator-promoter, the Kd in data set [1] was 70 nM and 71 nM (2×) and 67 nM; in data set [2], 42 nM and 32 nM (2×) and 34 nM; in data set [3], 1 nM and 4 nM (2×) and 2 nM.

With PcatB operator-promoter, the Kd in data set [1] is 11 nM and 19 nM (2×) and 10 nM; in data set [4] it was 1 nM and 3 nM (2×) and 4 nM; in data set [3] it was 3 nM.

The values are drawn from publication PMC6628147.
